# Assay results reported in the RNAGym collection of RNA variant scans (doi:10.7554/elife.90254).
# B1: OR4K15 (parent)
# chain: GUUAACGGUCAUAGGCCAUGGAAACUAGGAGCACCAUUUCGCUGCCAGUGAAGAAAUGAACAAAGAAAAUCUGGGCCAGGCAGGCAUCAAAAGAAAUAGUCUUGCGCUCAACCAGAAAGUCUGUAAUCAUUUUAAGGGUA
# Variants of: B1
# Test: self-cleavage, relative activity (ratio to wild type); higher = more cleavage; in vitro, sequencing; the parent is a self-cleaving ribozyme
row,Variant,self-cleavage
1,G14A,1.24
2,G14U,1.11
3,G14C,1.4
4,A13G U26C,0.93
5,A11U A126G,0.81
6,U12C U100C,1.4
7,U12C U100G,1.34
8,G14A A111G,0.01
9,A11U A23U,0.71
10,G14C A89G,2.26
11,A13G C107A,0.19
12,G15A A23G,0.9
13,A11U A129U,0.64
14,A11U A129G,1.27
15,A11G U57C,0.63
16,A13U U49C,1.28
17,U12A A78G,0.2
18,A11U A68G,0.99
19,U12C U102A,1.94
20,A13G C61U,0.68
21,U12C A30G,1.28
22,U12C A30U,1.21
23,G14A A63U,1.23
24,A13G A30G,1

row,Variant,self-cleavage
1,A13G A30U,1.14
2,G14A A69G,1.03
3,A11U U139C,1.23
4,A13G A64C,1.08
5,A13G A64G,0.88
6,G14A U19A,0.91
7,U12C A92G,0.58
8,A13G U70G,1.1
9,A11U U12C,0.97
10,A13U A23G,1.43
11,A13U A129U,0.73
12,U12C A82G,0.76
13,A13U A110U,1.26
14,A13U A110G,0.08
15,A11U U37C,1.01
16,U12A U130C,1.21
17,G14C U132C,1.04
18,A13U A51G,1.53
19,A13G A36U,0.67
20,U12C A56G,0.93
21,A13U A30G,1.26
22,G14C U127C,1.15
23,G14U U38C,0.66
24,A13U C34U,1.2

row,Variant,self-cleavage
1,G14A A86G,1.02
2,U12G A24G,1.1
3,U12G A13G,1.09
4,A11G U100C,1.06
5,A13U U132C,2.18
6,A13U U132A,0.96
7,A13G A52G,1.22
8,A13G A52U,0.84
9,U12C U130A,1.45
10,A13U C107U,0
11,A13G A129G,0.85
12,U12A U70C,0.41
13,A13U A59G,0.41
14,A11U A82U,0.31
15,U12C G41A,1.35
16,U12C A63C,1.12
17,U12C A63G,1.43
18,A13C U122G,2.12
19,A13C U122C,1.03
20,U12C A126C,0.42
21,U12C A126U,0.52
22,G14A A134U,0.5
23,A13G C85U,0.89
24,A11U A22G,1.53

row,Variant,self-cleavage
1,A11U A47U,0.96
2,U12A A52U,1.23
3,A13U U97C,1.4
4,A13G C88U,1.29
5,A13G G123U,1.33
6,A13G G123C,1.35
7,A13U C35A,1.88
8,U12C A47U,0.93
9,U12A A140G,1.5
10,U12C C85A,0.75
11,U12C A90G,0.97
12,A13U A62G,0.9
13,U12A U26C,2.17
14,A13U A111G,0.03
15,G15A,0.92
16,A11U U102A,0.7
17,U12C A66G,0.97
18,A11G U102A,0.58
19,U12A U102C,1.73
20,G14U A89G,1.39
21,A13G U43C,0.98
22,A13C A30G,1.49
23,A13G A22G,1.11
24,U12G C105U,0.22

row,Variant,self-cleavage
1,A13G A66G,0.55
2,A13G A117G,1.11
3,U12G U37C,1.48
4,G14A C71U,0.37
5,U12C U19A,1.05
6,A11U A67G,1.5
7,G14U U102A,0.36
8,A13G A90G,1.15
9,G14A G20A,1.49
10,U12C A95G,1.57
11,A11U A125G,1.3
12,G14A A90C,0.98
13,U12A A55U,2.25
14,U12A A55G,1.3
15,U12C G31U,1.48
16,A13G G20A,0.94
17,A13G A135C,0.49
18,A13C A51U,1.65
19,A11U U108C,0.01
20,A11U U108A,0.02
21,U12G A27C,1
22,U12A A116G,0.49
23,U12C A78G,0.31
24,U12A A24G,0.69

row,Variant,self-cleavage
1,A11U G41A,0.96
2,A13U A60U,2.26
3,A11U U131C,1.15
4,A13U U108C,0.01
5,U12C U120C,0.75
6,U12A U72A,0.36
7,U12A A22C,1.51
8,U12C A22G,0.98
9,U12A A135U,1.29
10,U12A A135G,1.47
11,A11U U70C,0.67
12,U12A U122A,0.62
13,A13G A86G,0.89
14,A13G A86C,0.5
15,A11U A52C,1.27
16,A11G U70G,0.6
17,G14A A110G,0.13
18,U12A G31A,1.75
19,A13U A90C,1.69
20,G14A C40A,1.54
21,A11U A62G,0.96
22,A11U A62C,0.99
23,A11U A13U,1.5
24,A13G U97A,1.2

row,Variant,self-cleavage
1,G14U A52U,1.71
2,U12C G28U,0.66
3,A11G G74U,0.24
4,A13C U132C,1.06
5,A13C A66G,0.52
6,A13G U38C,1.14
7,A13G A18U,0.89
8,A13G A18G,1.3
9,A13G U103C,0.75
10,U12A U108C,0.04
11,U12C A94U,1.8
12,U12C U87C,0.75
13,U12A U37C,1.96
14,G14A U124C,0.47
15,A13G G93U,0.86
16,U12A U139C,1.59
17,U12C U122G,2.09
18,U12G A86G,0.92
19,A11U A116U,0.5
20,A13U U38C,0.61
21,U12C A118G,0.61
22,U12C A23U,0.97
23,A13G A23G,1.3
